Source: paper doi:10.1101/2023.11.02.565309 (bioRxiv, 2023)

Target: the molecule itself
Assay: crystal structure

B1: ligand-binding domain of GluK2 (GluK2-LBD), S1-GT-S2 construct (domain or fragment, Rattus norvegicus)
chain: NRSLIVTTILEEPYVLFKKSDKPLYGNDRFEGYCIDLLRELSTILGFTYEIRLVEDGKYGAQDDVNGQWNGMVRELIDHKADLAVAPLAITYVREKVIDFSKPFMTLGISILYRKGTPIDSADDLAKQTKIEYGAVEDGATMTFFKKSKISTYDKMWAFMSSRRQSVLVKSNEEGIQRVLTSDYAFLMESTTIEFVTQRNCNLTQIGGLIDSKGYGVGTPMGSPYRDKITIAILQLQEEGKLHMMKEKWWRGNGCP
stoichiometry N: 2
